T1: full-length human KIF5B, C-terminal mScarlet-StrepII (human), P33176
T1 chain: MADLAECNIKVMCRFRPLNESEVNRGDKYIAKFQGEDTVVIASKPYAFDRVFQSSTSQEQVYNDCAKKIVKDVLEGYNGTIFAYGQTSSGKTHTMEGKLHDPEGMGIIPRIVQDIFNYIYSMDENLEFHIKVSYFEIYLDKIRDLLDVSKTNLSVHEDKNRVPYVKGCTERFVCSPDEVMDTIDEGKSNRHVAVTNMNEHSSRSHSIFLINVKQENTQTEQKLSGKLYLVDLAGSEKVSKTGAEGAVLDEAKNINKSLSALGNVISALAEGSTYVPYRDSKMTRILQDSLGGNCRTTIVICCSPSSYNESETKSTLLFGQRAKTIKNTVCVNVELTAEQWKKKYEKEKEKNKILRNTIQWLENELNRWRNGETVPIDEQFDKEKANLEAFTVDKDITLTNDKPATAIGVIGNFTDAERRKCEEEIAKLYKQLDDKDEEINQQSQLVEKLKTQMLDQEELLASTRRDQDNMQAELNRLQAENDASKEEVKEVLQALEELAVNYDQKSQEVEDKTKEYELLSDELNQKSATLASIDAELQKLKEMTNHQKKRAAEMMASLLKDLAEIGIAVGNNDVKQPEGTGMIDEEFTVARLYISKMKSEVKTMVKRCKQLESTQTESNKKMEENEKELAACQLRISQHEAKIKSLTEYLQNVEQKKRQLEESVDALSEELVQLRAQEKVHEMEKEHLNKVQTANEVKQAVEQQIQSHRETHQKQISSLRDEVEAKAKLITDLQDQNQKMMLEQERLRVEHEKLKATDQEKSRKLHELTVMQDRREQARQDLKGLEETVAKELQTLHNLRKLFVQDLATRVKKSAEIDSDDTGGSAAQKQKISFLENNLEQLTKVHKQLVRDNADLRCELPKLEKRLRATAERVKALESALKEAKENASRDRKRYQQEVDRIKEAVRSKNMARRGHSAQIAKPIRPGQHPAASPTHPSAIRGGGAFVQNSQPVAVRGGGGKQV

T2: full-length human KIF5A, C-terminal mScarlet-StrepII (human), Q12840
T2 chain: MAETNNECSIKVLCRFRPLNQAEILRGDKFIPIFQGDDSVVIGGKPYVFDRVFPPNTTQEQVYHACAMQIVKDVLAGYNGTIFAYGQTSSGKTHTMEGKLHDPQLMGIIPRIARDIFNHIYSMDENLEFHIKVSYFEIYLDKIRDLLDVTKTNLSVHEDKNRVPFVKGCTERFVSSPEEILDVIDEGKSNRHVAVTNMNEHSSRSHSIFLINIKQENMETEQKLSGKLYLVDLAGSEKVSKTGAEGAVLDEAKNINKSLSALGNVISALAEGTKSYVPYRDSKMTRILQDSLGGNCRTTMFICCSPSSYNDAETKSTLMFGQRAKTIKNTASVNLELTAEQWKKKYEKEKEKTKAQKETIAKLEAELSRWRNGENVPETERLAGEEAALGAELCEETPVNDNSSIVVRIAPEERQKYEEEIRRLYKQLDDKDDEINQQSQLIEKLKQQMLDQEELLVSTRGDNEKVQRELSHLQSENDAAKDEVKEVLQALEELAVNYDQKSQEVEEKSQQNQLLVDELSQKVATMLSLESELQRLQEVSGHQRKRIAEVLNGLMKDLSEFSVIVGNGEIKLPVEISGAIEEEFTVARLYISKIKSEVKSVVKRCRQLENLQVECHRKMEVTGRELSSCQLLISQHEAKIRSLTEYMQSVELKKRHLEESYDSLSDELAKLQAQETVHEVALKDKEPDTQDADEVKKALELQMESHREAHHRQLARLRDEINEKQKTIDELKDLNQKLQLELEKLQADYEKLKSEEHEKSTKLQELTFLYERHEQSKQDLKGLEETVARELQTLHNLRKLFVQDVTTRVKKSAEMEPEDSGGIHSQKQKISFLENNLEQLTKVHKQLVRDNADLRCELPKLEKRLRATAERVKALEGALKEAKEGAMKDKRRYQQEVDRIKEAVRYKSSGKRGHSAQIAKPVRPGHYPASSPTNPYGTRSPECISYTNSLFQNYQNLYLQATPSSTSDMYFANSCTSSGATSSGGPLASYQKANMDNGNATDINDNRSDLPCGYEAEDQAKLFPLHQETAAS


Assays:
[1] = biological target: T1, full-length human KIF5B, C-terminal …; assay: SEC-MALS; conditions: remark: other sources report otherwise
[2] = biological target: T2, full-length human KIF5A, C-terminal …; assay: SEC-MALS; conditions: remark: other sources report otherwise

| stoichiometry N [1] | stoichiometry N [2] | Binder |
| --- | --- | --- |
| 2 | – | full-length human KIF5B, C-terminal mScarlet-StrepII, P33176 1-963 (natural protein) MADLAECNIKVMCRFRPLNESEVNRGDKYIAKFQGEDTVVIASKPYAFDRVFQSSTSQEQVYNDCAKKIVKDVLEGYNGTIFAYGQTSSGKTHTMEGKLHDPEGMGIIPRIVQDIFNYIYSMDENLEFHIKVSYFEIYLDKIRDLLDVSKTNLSVHEDKNRVPYVKGCTERFVCSPDEVMDTIDEGKSNRHVAVTNMNEHSSRSHSIFLINVKQENTQTEQKLSGKLYLVDLAGSEKVSKTGAEGAVLDEAKNINKSLSALGNVISALAEGSTYVPYRDSKMTRILQDSLGGNCRTTIVICCSPSSYNESETKSTLLFGQRAKTIKNTVCVNVELTAEQWKKKYEKEKEKNKILRNTIQWLENELNRWRNGETVPIDEQFDKEKANLEAFTVDKDITLTNDKPATAIGVIGNFTDAERRKCEEEIAKLYKQLDDKDEEINQQSQLVEKLKTQMLDQEELLASTRRDQDNMQAELNRLQAENDASKEEVKEVLQALEELAVNYDQKSQEVEDKTKEYELLSDELNQKSATLASIDAELQKLKEMTNHQKKRAAEMMASLLKDLAEIGIAVGNNDVKQPEGTGMIDEEFTVARLYISKMKSEVKTMVKRCKQLESTQTESNKKMEENEKELAACQLRISQHEAKIKSLTEYLQNVEQKKRQLEESVDALSEELVQLRAQEKVHEMEKEHLNKVQTANEVKQAVEQQIQSHRETHQKQISSLRDEVEAKAKLITDLQDQNQKMMLEQERLRVEHEKLKATDQEKSRKLHELTVMQDRREQARQDLKGLEETVAKELQTLHNLRKLFVQDLATRVKKSAEIDSDDTGGSAAQKQKISFLENNLEQLTKVHKQLVRDNADLRCELPKLEKRLRATAERVKALESALKEAKENASRDRKRYQQEVDRIKEAVRSKNMARRGHSAQIAKPIRPGQHPAASPTHPSAIRGGGAFVQNSQPVAVRGGGGKQV |
| – | 2 | full-length human KIF5A, C-terminal mScarlet-StrepII, Q12840 1-1032 (natural protein) MAETNNECSIKVLCRFRPLNQAEILRGDKFIPIFQGDDSVVIGGKPYVFDRVFPPNTTQEQVYHACAMQIVKDVLAGYNGTIFAYGQTSSGKTHTMEGKLHDPQLMGIIPRIARDIFNHIYSMDENLEFHIKVSYFEIYLDKIRDLLDVTKTNLSVHEDKNRVPFVKGCTERFVSSPEEILDVIDEGKSNRHVAVTNMNEHSSRSHSIFLINIKQENMETEQKLSGKLYLVDLAGSEKVSKTGAEGAVLDEAKNINKSLSALGNVISALAEGTKSYVPYRDSKMTRILQDSLGGNCRTTMFICCSPSSYNDAETKSTLMFGQRAKTIKNTASVNLELTAEQWKKKYEKEKEKTKAQKETIAKLEAELSRWRNGENVPETERLAGEEAALGAELCEETPVNDNSSIVVRIAPEERQKYEEEIRRLYKQLDDKDDEINQQSQLIEKLKQQMLDQEELLVSTRGDNEKVQRELSHLQSENDAAKDEVKEVLQALEELAVNYDQKSQEVEEKSQQNQLLVDELSQKVATMLSLESELQRLQEVSGHQRKRIAEVLNGLMKDLSEFSVIVGNGEIKLPVEISGAIEEEFTVARLYISKIKSEVKSVVKRCRQLENLQVECHRKMEVTGRELSSCQLLISQHEAKIRSLTEYMQSVELKKRHLEESYDSLSDELAKLQAQETVHEVALKDKEPDTQDADEVKKALELQMESHREAHHRQLARLRDEINEKQKTIDELKDLNQKLQLELEKLQADYEKLKSEEHEKSTKLQELTFLYERHEQSKQDLKGLEETVARELQTLHNLRKLFVQDVTTRVKKSAEMEPEDSGGIHSQKQKISFLENNLEQLTKVHKQLVRDNADLRCELPKLEKRLRATAERVKALEGALKEAKEGAMKDKRRYQQEVDRIKEAVRYKSSGKRGHSAQIAKPVRPGHYPASSPTNPYGTRSPECISYTNSLFQNYQNLYLQATPSSTSDMYFANSCTSSGATSSGGPLASYQKANMDNGNATDINDNRSDLPCGYEAEDQAKLFPLHQETAAS |

Reference: publication doi:10.1101/2021.03.12.434960
